According to the supplement of paper PMC12042874:
± gives the uncertainty stated by the source.

Assay: amyloid nucleation score (Sup35N fusion, yeast selection) (log enrichment); library NNK2; higher = more nucleation; inactive = no reads after selection
Method in brief: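 DiMSum was used to calculate nucleation scores as log enrichment of output over input reads, centred on the mode score of non-aggregating sequences. Sequences with fewer than 100 input reads were not scored. Input and output came from Illumina sequencing of plasmid inserts in psi-negative yeast expressing peptides of 20 random codons fused to Sup35N, induced 24 hours with 100 μM copper sulfate and then grown 7 days at 30°C on medium lacking adenine and uracil.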

RINGRRWGFTWVASGLEYFG
amyloid nucleation score: 1.87 ± 0.11

VRYKSYMDVS
amyloid nucleation score: 0.87 ± 0.48

PWNLLGWLRRS
amyloid nucleation score: 0.108 ± 0.23

GLRRRMCCRRCWLEGVDFQD
amyloid nucleation score: inactive

GSVVHQEFFSPSKGFVSSQF
amyloid nucleation score: -1.4 ± 0.55

NHSMRFVLTMPILWKNQKAG
amyloid nucleation score: 0.228 ± 1

YLSTFVGTVHDSHTCRFCWN
amyloid nucleation score: 3.79 ± 0.13

YLSTGNNMFLNVQDSQGA
amyloid nucleation score: 1.36 ± 0.13

YCTPCLW
amyloid nucleation score: 0.452 ± 0.66

LFTGRNRTSTHSSDISSRN
amyloid nucleation score: 0.531 ± 0.66

FGSIFNSYVNEWRSLLCNID
amyloid nucleation score: -1.67 ± 0.39

NIGKMLRALFDMSNVRT
amyloid nucleation score: -1.17 ± 0.39

PGFKSCIP
amyloid nucleation score: 0.598 ± 0.28

FRRCGPDGGIWLDLAACKKI
amyloid nucleation score: 0.1 ± 0.38

VYLGSGFAARRSSGEQRRIS
amyloid nucleation score: 0.536 ± 0.66

NREIGISWEGWMMLKILQYK
amyloid nucleation score: inactive

AYHNLRN
amyloid nucleation score: 0.191 ± 0.63

TRWLGGISMGNSVFVLIRTL
amyloid nucleation score: 0.416 ± 0.51

SARWYILRVFIFFIPRSAYK
amyloid nucleation score: -1.59 ± 0.76

GFNSNGTFHFSQSVT
amyloid nucleation score: -0.001 ± 0.65

GLSWPTNRCRRALMESTSAP
amyloid nucleation score: inactive

CLIDFWKRDFKSAVDSKGTA
amyloid nucleation score: 0.125 ± 0.65

GKKTAGDIRCWWRWSLGCSP
amyloid nucleation score: 0.731 ± 0.57

VVLQTKHSLAISGQQLIPMA
amyloid nucleation score: 0.32 ± 0.32

SLSCGLYGYMTNSCSYVHRT
amyloid nucleation score: 4.22 ± 0.053

VCYMGTRCGWNSRARVFWGS
amyloid nucleation score: 2.69 ± 0.11

NFNYFGWISQEIPPLLAGLS
amyloid nucleation score: -0.509 ± 1.1

PDHKLARTIYWAPCTMDWVI
amyloid nucleation score: -0.057 ± 0.61

GNRDMGVVNGRYVTAVTS
amyloid nucleation score: 0.422 ± 0.26

VVNLETVCIYRKLSYKFQVR
amyloid nucleation score: inactive

LRTIEASLMGVSNLKKWSFI
amyloid nucleation score: -0.299 ± 0.48

AWCFSWHQKLLAR
amyloid nucleation score: 0.471 ± 0.36

FEIGGHIDCETGVCCGVAVM
amyloid nucleation score: 4.56 ± 0.052

GMPNFSVFVWAF
amyloid nucleation score: 2.59 ± 0.082

SRICIFDDCNRRLARYWGLR
amyloid nucleation score: 0.057 ± 0.76

CFLMNKVT
amyloid nucleation score: -1.5 ± 0.49

VYLCARKGM
amyloid nucleation score: -0.287 ± 0.79

VCIRVRRDRKVMWDWSV
amyloid nucleation score: 1.5 ± 0.24

NMNGF
amyloid nucleation score: -0.532 ± 1

MDYNLIKCAPWT
amyloid nucleation score: inactive

DVAGKL
amyloid nucleation score: -0.151 ± 0.39

EADELGLLVSIKCRAARRCW
amyloid nucleation score: 5.743 ± 0.052

QYTRDFVRGTSQF
amyloid nucleation score: -0.949 ± 1.1

GADGTSVLDFCDSVTV
amyloid nucleation score: -1.32 ± 0.44

WRELKSQVDWRLDILSGSYR
amyloid nucleation score: 0.971 ± 0.26

TFYIYGIHSLA
amyloid nucleation score: -0.917 ± 0.34

NRWLYFHS
amyloid nucleation score: -0.678 ± 0.76

VTVVWESDSFRYVYWLNRLE
amyloid nucleation score: 0.926 ± 0.48

SLISKEFVGLVGGET
amyloid nucleation score: -0.388 ± 0.25

GGGGCSSDFTQKTPPGQAKA
amyloid nucleation score: -0.102 ± 0.36

FDNQFTLVVRGIVGTVYWCV
amyloid nucleation score: 7.233 ± 0.065

GAMTSMDVCL
amyloid nucleation score: -0.062 ± 0.65

AFCKALCIVRRYSPPPLIVA
amyloid nucleation score: inactive

VDPHFFIRLFLEYHNVMSWY
amyloid nucleation score: inactive

VTRDFSRGIGDWLICGDILE
amyloid nucleation score: -1.81 ± 0.49

RVCPFSQYHVFVS
amyloid nucleation score: -0.155 ± 0.18

FEGSLPVPDGEEAWCAQRMS
amyloid nucleation score: -0.006 ± 0.45

LDALGLDTFNMQLV
amyloid nucleation score: 0.236 ± 0.28

MMAIHVRMLARQSFGRICFM
amyloid nucleation score: 3.45 ± 0.098

IRSLMSR
amyloid nucleation score: 2.32 ± 0.061

FYLGYQTRCYSLIGDIE
amyloid nucleation score: 3.51 ± 0.05

RSPDKDSMQTTLLIRRVTSW
amyloid nucleation score: 1.14 ± 0.48

VRFSVLRFGKLCPSGLWRVR
amyloid nucleation score: 0.255 ± 1.1

LDNWEL
amyloid nucleation score: 0.145 ± 0.16

QYDSSFT
amyloid nucleation score: -0.165 ± 0.55

IVLNVYMRKTKQV
amyloid nucleation score: 0.078 ± 0.29

TFMMLMEHGRIYFLWASPVA
amyloid nucleation score: -1.68 ± 1.1

YDEKMRVHDKYKTQPLERGR
amyloid nucleation score: 4.37 ± 0.1

MGIMPQITLDLNLLYLGKVL
amyloid nucleation score: 0.14 ± 0.35

IVSSSNFFKLMYCMFILRIS
amyloid nucleation score: 0.247 ± 1

DVCYCRKPTINALRWLMMYA
amyloid nucleation score: -0.27 ± 1.1

FLKGPTEECQLRPSLRTNLQ
amyloid nucleation score: 0.069 ± 0.23

EGSCYIWGSMAITFNAHHDR
amyloid nucleation score: 5.68 ± 0.077

HYMDSNIVLNSAKSRRKDAW
amyloid nucleation score: 0.132 ± 0.24

GSVVHLQSCNISLIAYGLHG
amyloid nucleation score: 8.298 ± 0.054

SVVGRYEYIILGTRAPGTSR
amyloid nucleation score: 0.272 ± 0.5

EGAVLRLALGVGTNLNQLSV
amyloid nucleation score: 0.098 ± 0.37

SSIVEDGLTLLNGGNRIDGY
amyloid nucleation score: 0.445 ± 0.31

YSLLCWVYIRSLNSLNKCCG
amyloid nucleation score: 3.15 ± 0.075

PLGYGMGLRGLFGLLDSYFG
amyloid nucleation score: 0.19 ± 0.8

IRFYGS
amyloid nucleation score: inactive

RVRKNCRFWSNCSCIVMVGR
amyloid nucleation score: 5.07 ± 0.059

LMKSIVGFMNESPLVIEFGR
amyloid nucleation score: -0.402 ± 0.27

GFSLVW
amyloid nucleation score: -0.413 ± 0.41

MNLPKFNSYLMDSANARASP
amyloid nucleation score: 0.58 ± 0.19

FRYAVPMCTFFADYFMSDQS
amyloid nucleation score: inactive

DSWFGRFYDEESSWCWAMVR
amyloid nucleation score: 0.039 ± 0.36

QVCFHDQ
amyloid nucleation score: -0.589 ± 0.48

TLLNAYNNTLVWIWFVSMPV
amyloid nucleation score: 5.46 ± 0.081

CCQSFNVNRSTLNNLGRSYL
amyloid nucleation score: 0.848 ± 0.16

VTIYGVLSRLNDCFFRGVWD
amyloid nucleation score: inactive

IRYWLNERMVSDRRTVTGGV
amyloid nucleation score: 7.47 ± 0.077

SFCMPGISLFLVFRQTDGHM
amyloid nucleation score: inactive

MGEYFSMALYAPYTWVFMSV
amyloid nucleation score: -1.55 ± 1

NPYINLLRFIDSDSSALV
amyloid nucleation score: -1.35 ± 1.1

DANDSSWEGG
amyloid nucleation score: 0.669 ± 0.74

NMLKGMCWVTLCIWMYMRLC
amyloid nucleation score: 4.09 ± 0.057

YGLPYEVLFNHSHTSNRAYS
amyloid nucleation score: -0.532 ± 0.43

NLFYLARSMLINLQMYKTER
amyloid nucleation score: 4.46 ± 0.08

NTATSN
amyloid nucleation score: -0.22 ± 1.1

DSYMKRLWCRAARDRTESVW
amyloid nucleation score: 0.159 ± 0.46

SIFSKYCF
amyloid nucleation score: -0.464 ± 0.5

CYAGFCN
amyloid nucleation score: inactive

QNDLIWSSW
amyloid nucleation score: -1.32 ± 0.49

RVRSGKKHDW
amyloid nucleation score: 1.01 ± 0.14

GWMCMPAQGAKDNHLLGYLM
amyloid nucleation score: -0.533 ± 0.55

NILLIPMRGFSRFRSVMVIP
amyloid nucleation score: -0.202 ± 1.1

IRVYFRDEYLKFG
amyloid nucleation score: -0.358 ± 0.19

RLSPPLCVLIYIMRYLNGYW
amyloid nucleation score: 0.42 ± 0.66

RSQIPNYYWQYMLVYSYLQG
amyloid nucleation score: 0.201 ± 0.74

ASSIG
amyloid nucleation score: 0.072 ± 0.26

PWYGSQGNTKSCYSFVMSLP
amyloid nucleation score: 0.06 ± 0.34

SMSSTSFSQWSMAWLEGRMA
amyloid nucleation score: 2.93 ± 0.078

RDWRVFIYFMGNVVLDY
amyloid nucleation score: 5.59 ± 0.08

QVLISFG
amyloid nucleation score: -2.41 ± 1.1

CNFVRSYDCHQVKLSI
amyloid nucleation score: -1.18 ± 1.1

AIYLWSF
amyloid nucleation score: 4.85 ± 0.054

NRKFARWLLLT
amyloid nucleation score: -0.492 ± 0.61

YVEFCFLTCSASGLAWSLRW
amyloid nucleation score: 0.053 ± 0.31

FDTRITMMCALWTFPAT
amyloid nucleation score: 7.15 ± 0.079

WDTHLYQDMGCFAHLFIRYF
amyloid nucleation score: inactive

CMVIRSW
amyloid nucleation score: -0.064 ± 0.34

DCLLGNSSPAV
amyloid nucleation score: -0.594 ± 1.1

VACVAHNTHYELTQQSYIYY
amyloid nucleation score: 5.609 ± 0.046

GADGCCHNMDCGFLNINWTN
amyloid nucleation score: 8.959 ± 0.049

IRAGAWLEICRSAVVSGPSF
amyloid nucleation score: -0.073 ± 0.33

ILRSRGERISASY
amyloid nucleation score: 2.97 ± 0.14

HVLFIAKLDFALTEFLRMCE
amyloid nucleation score: 0.735 ± 0.19

NTFWLGFPYSLLQALCHALD
amyloid nucleation score: 0.447 ± 0.53

IGWFKRRSCVEFGRRRMRIL
amyloid nucleation score: -1.3 ± 1.1

SPWVNYYPSRVYRNVNACLF
amyloid nucleation score: -0.339 ± 0.35

LDWRTQFLCV
amyloid nucleation score: 1.19 ± 0.61

FQMMCSIDFNKCLPWLFS
amyloid nucleation score: inactive

IIVYFVAFASTGARASK
amyloid nucleation score: -0.951 ± 0.54

YMERIYRWYSQCNRCQVRLW
amyloid nucleation score: -0.644 ± 0.54

RFAFFVYPTYMRMTVTVLSY
amyloid nucleation score: inactive

HSFNYKFLLTI
amyloid nucleation score: -0.001 ± 0.54

STMKC
amyloid nucleation score: -0.29 ± 0.56

LAIVKGLVKSFLCYDFSGKV
amyloid nucleation score: inactive

LLARVYKTICCMNWGFRNE
amyloid nucleation score: 2.06 ± 0.1

QWSAILFSMRWFVKKSEFSC
amyloid nucleation score: 3.48 ± 0.052

CRNQMQGWWYVWMVGVCRGS
amyloid nucleation score: inactive

RNAKMMTSSLVYNWFVFAER
amyloid nucleation score: 5.353 ± 0.045

HKLLCGYTQSQHQRIGFQEF
amyloid nucleation score: -0.733 ± 1.1

AIYKDRGWGATGHVFRILGR
amyloid nucleation score: 0.752 ± 0.57

DMLPLMSAVPHSFSMLVWGE
amyloid nucleation score: -0.109 ± 0.36

GYIMIPRYPPSKHLCF
amyloid nucleation score: -0.545 ± 0.41

IFIRMH
amyloid nucleation score: 2.48 ± 0.16

GQELSGNIFIPDHLGLLSCS
amyloid nucleation score: 0.744 ± 0.8

WKSLTGYIRLIFRNFWTSHD
amyloid nucleation score: inactive

KYCSINCYRTASFQTFHLCW
amyloid nucleation score: 6.231 ± 0.036

DCLLCFFGSHSILVRPILKV
amyloid nucleation score: inactive

RPHTLGHRCSCQSNFFLLPL
amyloid nucleation score: 0.025 ± 1.1

LYDGSVRQWTDEHWWVMSGG
amyloid nucleation score: 0.988 ± 0.28

PSNKYSDVPSNAQSGFAWYG
amyloid nucleation score: 0.56 ± 0.57

RISKRAHECLIMQG
amyloid nucleation score: -0.108 ± 1.1

LNTLSESLEKNSGTLCWAKR
amyloid nucleation score: inactive

LVVVMWR
amyloid nucleation score: 2.82 ± 0.19

IDCWCSVSWATAL
amyloid nucleation score: -0.4 ± 0.64

HLDLDPPM
amyloid nucleation score: 0.284 ± 1.1

RYTSVYSGRSENG
amyloid nucleation score: inactive

EKMLF
amyloid nucleation score: 0.528 ± 0.34

MHCYSIGFRLMRSANMLSCY
amyloid nucleation score: 0.394 ± 0.33

IDFVVFFT
amyloid nucleation score: 1.09 ± 0.27

VHLLGDFGLASQRRNECKLL
amyloid nucleation score: 0.477 ± 0.28

RNPNVEVCRKQFRVGCSLAN
amyloid nucleation score: -0.931 ± 0.39

ILVWANSHVLDVDHRDRGRR
amyloid nucleation score: 1.9 ± 0.13

FSFSEHRL
amyloid nucleation score: 0.045 ± 0.79

LSRQGRLESVKDGRSMWVSG
amyloid nucleation score: -0.283 ± 1.1

YFRVFFFLMSIYTDKN
amyloid nucleation score: inactive

NKVEALLWTKTTLQCSLRSV
amyloid nucleation score: 4.82 ± 0.059
